Reference: patent US8993725B2, “Notch-based fusion proteins and uses thereof” (The Trustees of Columbia University in the City of New York, priority 2004, dated 2015)

How the values were obtained:
[1] = system: MMP9 mRNA; assay: RT-PCR analysis of MMP9 expression in Ad-VEGF-HUVEC; type: cell-based, Human
Method: FIGS. 24A-B show gelatin zymography analysis of MMP-9 and MMP-2 activity stimulated by VEGF in HUVEC. […] Transduced HUVEC were cultured on fibrin gel on the indicated day (i.e. D2, D4, D6, D8). Similar results were also obtained by using collagen gel, although induction of MMP-9 was stronger on fibrin gel than collagen gel (data not shown). […] HUVEC were transduced with Ad-N1ECDFc at the indicated doses and condition medium was collected from HUVEC cultured on collagen gel at day 4. FIGS. 24C-D show up-regulation of MMP-9 and MT1-MMP with Notch signaling. HUVEC were transduced with either Ad-LacZ or Ad-N1IC at 40 MOI. Numbers show PCR cycles. […] HUVEC were transduced with Ad-VEGF in the absence or presence of co-transduction of Ad-N1ECDFc at 40 MOI each. Ad-LacZ was co-transduced to make the same total amount of adenovirus at 80 MOI.
Requisition of MMPs for angiogenic sprouting has been established by synthetic MMP inhibitors (16). GM6001 is one broad inhibitor against MMPs including MMP2, MMP9 and MT1-MMP (18).

[2] = system: HUVEC; assay: HUVEC proliferation (CCK-8 kit); type: cell-based, Human; settings: complete medium, 4 days
Method: These Figures show proliferation of Ad-VEGF165-transduced HUVEC. HUVEC were transduced with Ad-VEGF165 at the indicated dosages. Ad-LacZ was also co-infected to make the same total amount of adenovirus at a MOI of 40 pfu/cell. HUVEC were suspended in SFM supplemented with 1% FBS and then plated at 1×10^4 cells/well in 24-well multi-well plates with 0.4 ml of medium. After 4 days, cell numbers were determined using the CCK-8 kit and the results are indicated as the ratio of cell numbers determined to the number of control cells, which were transduced with Ad-GFP at a MOI of 40 pfu/cell. […] Ad-VEGF-transduced HUVEC were treated with SU5416 at the indicated dosages.
These Figures show the effect of alteration of Notch signaling on cell proliferation. The cells were transduced with the indicated adenoviruses. Ad-GFP was also co-infected to make the same total amount of adenovirus at a MOI of 60 pfu/cell. After 4 days, cell numbers were determined using the CCK-8 kit and results are indicated as the ratio of cell numbers determined to the number of control cells, which were transduced with AD-GFP at MOI of 60 pfu/cell. […] Transduced HUVEC were suspended in complete medium and then plated at 1×10^4 cells/well in 24-well multiwell plates with 0.4 ml of indicated medium (□: Ad-N1IC; ▪: Ad-N1ECDFc). […]

[3] = system: Notch1 signaling activated by Notch ligands (Jagged1, Delta-like 1, Delta-like 4); assay: Co-culture assay of ligand-induced Notch signaling (CSL-luciferase reporter); type: cell-based; settings: for Inhibition of ligand-induced Notch1 signaling (CSL reporter activity): fusion protein expression vector co-transfected into Notch1-expressing HeLa, co-culture with ligand-expressing 293 (Bosc) cells
Method: Notch and Notch responsive transcriptional reporters are expressed in a “Notch-responsive” cell, HeLa. Notch ligands, Jagged-1, Delta-like 1, or Delta-like 4 are expressed in a “ligand-presenting” cell, 293. Expression is mediated by transfection of individual cell populations, cells are co-cultured, and then assayed for Notch-dependent reporter activity.
To determine ligand-induced Notch signaling, co-culture assays were performed using HeLa and 293-derived Bosc cells. Transient transfections were performed by calcium phosphate precipitation. Hela cells plated 1-day prior in 10-cm plates at 1.5×10^6 were transfected with 333 ng of pBOS Notch1, 333 ng pGA981-6, and 83 ng pLNC lacZ with either 666 ng pCMV-Fc or pHyTC-N1ECDFc (333 ng for ×1, 666 ng for ×2). Bosc cells plated 1-day prior in 10-cm plates at 4×10^6 were transfected with either 680 ng pHyTc-Jagged1, pHyTc-Dll1, pHyTc-Dll4, or pHyTc-x (empty vector). One day after transfection, the cells were co-cultured in triplicate (HeLa:Bosc, 1:2) on 12-well plates for 24 hours. Cells were harvested and luciferase activity was determined 2-days post-transfection using the Enhanced Luciferase assay kit (BD PharMingen), and β-galactosidase activity was determined using the Galacto-Light Plus kit (PE Biosystems). All assays were performed in a Berthold dual-injection luminometer.
An in vitro co-culture system (FIG. 3) with ligands expressed on one cell and Notch receptor activation scored in another cell was used to measure transcriptional activation of the Notch pathway. […] The N1ECD/Fc expression vector was co-transfected at different ratios with full-length Notch1 and the CSL-luciferase reporter in HeLa cells, followed by co-culture with ligand expressing 293 cells.

B1: N1ECDFc: Notch-based fusion protein or decoy: extracellular domain of Notch1 containing the EGF-repeats fused to the Fc portion of an antibody (protein)
chain: ARGLRCSQPSGTCLNGGRCEVANGTEACVCSGAFVGQRCQDPSPCLSTPCKNAGTCYVVDHGGIVDYACSCPLGFSGPLCLTPLANACLANPCRNGGTCDLLTLTEYKCRCPPGWSGKSCQQADPCASNPCANGGQCLPFESSYICGCPPGFHGPTCRQDVNECSQNPGLCRHGGTCHNEIGSYRCACRATHTGPHCELPYVPCSPSPCQNGGTCRPTGDTTHECACLPGFAGQNCEENVDDCPGNNCKNGGACVDGVNTYNCRCPPEWTGQYCTEDVDECQLMPNACQNAGTCHNSHGGYNCVCVNGWTGEDCSDNIDDCASAACFQGATCHDRVASFYCECPHGRTGLLCHLNDACISNPCNEGSNCDTNPVNGKAICTCPRGYTGPACSQDVDECALGANPCEHAGKCLNTLGSFECQCLQGYTGPRCEIDVNECISNPCQNDATCLDQIGEFQCICMPGYEGVYCEINTDECASSPCLHNGRCVDKINEFLCQCPKGFSGHLCQYDVDECASTPCKNGAKCLDGPNTYTCVCTEGYTGTHCEVDIDECDPDPCHIGLCKDGVATFTCLCQPGYTGHHCETNINECHSQPCRHGGTCQDRDNYYLCLCLKGTTGPNCEINLDDCASNPCDSGTCLDKIDGYECACEPGYTGSMCNVNIDECAGSPCHNGGTCEDGIAGFTCRCPEGYHDPTCLSEVNECNSNPCIHGACRDGLNGYKCDCAPGWSGTNCDINNNECESNPCVNGGTCKDMTSGYVCTCREGFSGPNCQTNINECASNPCLNQGTCIDDVAGYKCNCPLPYTGATCEVVLAPCATSPCKNSGVCKESEDYESFSCVCPTGWQGQTCEIDINECVKSPCRHGASCQNTNGSYRCLCQAGYTGRNCESDIDDCRPNPCHNGGSCTDGVNAAFCDCLPGFQGAFCEEDINECATNPCQNGANCTDCVDSYTCTCPTGFNGIHCENNTPDCTESSCFNGGTCVDGINSFTCLCPPGFTGSYCQYDVNECDSRPCLHGGTCQDSYGTYKCTCPQGYTGLNCQNLVRWCDSAPCKNGGKCWQTNTQYHCECRSGWTGFNCDVLSVSCEVAAQKRGIDVTLLCQHGGLCVDEEDKHYCHCQAGYTGSYCEDEVDECSPNPCQNGATCTDYLGGFSCKCVAGYHGSNCSEEINECLSQPCQNGGTCIDLTNTYKCSCPRGTQGVHCEINVDDCHPPLDPASRSPKCFNNGTCVDQVGGYTCTCPPGFVGERCEGDVNECLSNPCDPRGTQNCVQRVNDFHCECRAGHTGRRCESVINGCRGKPCRNGGVCAVASNTARGFICRCPARFEGATCENDARTCGSLRCLNGGTCISGPRSPTCLCLGSFTGPECQFPASSPCVGSNPCYNQGTCEPTSESPFYRCLCPAKFNGLLCHILDYSFTDLGPG
modifications: left off: a dimerising Fc or GST
notes: Notch-based fusion protein or decoy: extracellular domain of Notch1 containing the EGF-repeats fused to the Fc portion of an antibody
[1]; Ad-LacZ infected HUVEC, data not shown
  Expression of MMP9, fusion protein adenovirus alone: did not affect expression of either MMP9 or MT1-MMP
[1]; co-transduction with Ad-VEGF, 40 MOI each
  VEGF-induced up-regulation of MMP9 mRNA: this induction was inhibited
[2]
  Proliferation of transduced HUVEC: did not clearly alter proliferation of HUVEC
[3]; 2:1 versus 1:1 ratio of N1ECD/Fc to Notch1 vector
  Concentration-dependency of inhibition of Notch1 signaling: a 2:1 ratio of N1ECD/Fc to Notch1 was more effective in inhibiting signaling than a 1:1 ratio
[3]; Jagged1, Delta-like 1 or Delta-like 4 expressing cells
  Block of signaling by individual Notch ligands: could block signaling mediated by Jagged1, Delta-like 1 or Delta-like 4
[3]
  Inhibition of ligand-induced Notch1 signaling (CSL reporter activity): inhibition of Notch signaling
[3]; listed as N1ECD/Fc
  Inhibition of ligand-induced Notch1 signaling (CSL reporter activity): activation of Notch1 signaling by Notch ligands was reduced
[3]; listed as Notch1ECD/Fc
  Inhibition of ligand-induced Notch1 signaling (CSL reporter activity): functions to block ligand-dependent Notch signaling
[3]; listed as Notch-based fusion protein
  Inhibition of ligand-induced Notch1 signaling (CSL reporter activity): these inductions were inhibited
